The supplement of paper PMC11865577

Experiments:
Assay in all cases: pull-down binding Z-score (relative to library population); higher = stronger binding
TO-N3 (biotin conjugate) = conditions: RNA library: Library-2
In short: (§1)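 To score binding, a beads-only signal was subtracted, barcoded replicate probes were averaged with the highest and lowest dropped, and the value was converted to a Z-score using the library mean and standard deviation. The input was 1 μg of Cy5- or Cy3-end-labelled RNA library, heat-folded in phosphate/NaCl/KCl buffer and mixed for 60 min at 25 °C with streptavidin beads carrying 100 pmol of biotin-conjugated small molecule. Bound RNA was eluted in hot SDS and hybridised to a DNA barcode microarray at 55.5 °C for 20 h.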

[1] = test system: TO-N3-2 (biotin conjugate); conditions: RNA library: Library-2
In short: as §1

[2] = test system: TO-3-N3-2 (biotin conjugate); conditions: RNA library: Library-2
In short: as §1

[3] = test system: TO-3-N3 (biotin conjugate); conditions: RNA library: Library-2
In short: as §1

[4] = test system: G-clamp-N3 (biotin conjugate); conditions: RNA library: Library-1 (pre-miRNA loops + repeats)
In short: as §1

| Sequence | pull-down binding Z-score (TO-N3 (biotin conjugate)) | pull-down binding Z-score [1] | pull-down binding Z-score [2] | pull-down binding Z-score [3] | pull-down binding Z-score [4] |
| --- | --- | --- | --- | --- | --- |
| AUCAGUUCUCAUUUUACACACUGGC [hsa-mir-24-1] | -0.54 | -0.282 | -0.0568 | -0.563 | 0.0425 |
| UAGAGUAGGAGAGCCCACUGA [hsa-mir-6846] | 1.28 | 1.21 | 0.147 | 0.712 | 0.203 |
| GGAAACUGAGACUUUGUAACUAUGUCUCAGUCUCA [hsa-mir-452] | -0.297 | -0.427 | -0.296 | -0.179 | -0.74 |
| ACUACUGUACUUUACAGCUAGCAGU [hsa-mir-301a] | 0.303 | 1.09 | -0.244 | -0.475 | 0.0373 |
| UGUGGUCACCCACUCU [hsa-mir-4316] | 0.0225 | 0.297 | -0.0165 | -0.237 | -0.668 |
| GACUUCCAUGACAUGAAAUAGGAAGUC [hsa-mir-616] | -1.12 | -0.705 | -0.183 | -0.453 | 0.351 |
| AGAAAUCAAGCUAUUUGCUAAAAGUUCU [hsa-mir-6844] | -0.316 | -0.0563 | 0.246 | -0.362 | -0.369 |
| CAUUGGUGUAAAGCUGGAGACCCACUG [hsa-mir-324] | 0.738 | 1.09 | 0.0332 | 0.527 | 0.528 |
| UGAAGAAGAGUAUUGAUUGUGCUGUUCG [hsa-mir-6788] | 0.494 | 0.16 | -0.00107 | 0.425 | 0.592 |
| UGAGGAGCUUAGCAAGUAGCUAAGGCCAGA [hsa-mir-4517] | 0.339 | 1.1 | -0.393 | -0.194 | 0.384 |
| UGCUGGAGAAGUGUUU [hsa-mir-557] | 0.49 | 0.156 | 0.0975 | 0.516 | -0.431 |
| GCUGCCAGGAAAUCCCUAUUUCAUAUAAGAGGGGGCUGGCUGGUUGC [hsa-mir-448] | 0.447 | 0.355 | 0.236 | 0.185 | 1.08 |
| CUGGCUUCUCUGGUUCUCCAGCUUACAG [hsa-mir-1269b] | -0.0501 | 0.333 | -0.356 | -0.401 | -1.06 |
| GCAUUUUAUCUAAGAUACACACAAAGCAAAUGC [hsa-mir-4439] | 0.118 | -0.81 | 0.179 | 0.441 | -1.12 |
| GCUGCUGCCCCAGAGGCCCAGCAGGUGUCCAGAAC [hsa-mir-6750] | 1.18 | 1.93 | 0.49 | 0.55 | -0.884 |
| GCGUCGCUUCUCCCUAAUGUUGCC [hsa-mir-6781] | -0.068 | 0.502 | 0.089 | -0.385 | -0.106 |
| AUGGAGAACGCCCCCACCAGUUCCCAC [hsa-mir-6767] | 1.68 | 0.67 | 0.564 | 1.67 | -0.992 |
| CUUUCUGUUGUCUGAAAGAAAAGAAAG [hsa-mir-520c_520b_519c_519b] | 0.458 | 0.38 | 0.102 | 0.176 | 0.44 |
| GUCCUGCCCUCACUGGGAACCCCCUUCCCUCUGGGUACCAG [hsa-mir-1324] | 1.88 | 1.39 | 0.477 | 1.48 | -0.948 |

| Sequence | pull-down binding Z-score (TO-N3 (biotin conjugate)) | pull-down binding Z-score [1] | pull-down binding Z-score [2] | pull-down binding Z-score [3] | pull-down binding Z-score [4] |
| --- | --- | --- | --- | --- | --- |
| CCACUGGGAAUGCUCCCUGAGGACGUUAUAUGAGUG [hsa-mir-4319] | 0.802 | 0.872 | 0.399 | 0.544 | 0.953 |
| AACGUUAUGUGUGGUCUUUAACCUGUU [hsa-mir-6755] | -0.139 | -0.171 | 0.16 | -0.152 | -1.32 |
| UGCCUCUCGGGGU [hsa-mir-6073] | 0.118 | 0.214 | 0.15 | 0.000863 | -0.532 |
| CAUAUGUGUAACAGACAUACAUACAUACAUAUG [hsa-mir-3688-2] | -1.02 | -1.31 | -0.463 | -0.818 | -0.866 |
| UUUCUGUUGUCUAAAAGAAGAGAAA [hsa-mir-518a-2] | 0.171 | -0.273 | -0.0883 | 0.159 | 0.832 |
| CUGUUCAGGACAAUGCCGUUGUACA [hsa-mir-199a-2] | 0.16 | 0.838 | -0.27 | -0.355 | 0.637 |
| UGGUUGAAUAUGUGAAUGGCAUCG [hsa-mir-449a] | 0.153 | 0.601 | 0.0695 | -0.0496 | 0.694 |
| CACACAUACAUAUAUAUAUGUUUG [hsa-mir-3149] | 0.379 | -0.501 | 0.18 | 0.618 | -0.604 |
| CUUUUGGAAAAUAGAAAAG [hsa-mir-3184] | -0.433 | -0.0491 | 0.161 | -0.24 | 1.56 |
| GAUUGGUUAGCCUAAGACUUGUUCUGAUCCAAUC [hsa-mir-5701-1_5701-2_5701-3] | 0.513 | 0.061 | 0.14 | 0.546 | -0.75 |
| UAGGCCCACUGCUCAGUGGAGC [hsa-mir-7847] | 0.139 | 0.845 | -0.0119 | -0.238 | 0.533 |
| CCUCCCCCAGUGCCAGG [hsa-mir-3196] | -0.106 | 0.352 | -0.331 | -0.253 | -0.591 |
| GUGAGGUAUUUUAGUAACAUCAC [hsa-mir-125b-2] | -0.969 | -0.794 | -0.536 | -0.818 | 0.629 |
| AGUGAGCUGAGAUCACGCAACU [hsa-mir-1273f] | 0.206 | 0.629 | 0.00609 | -0.37 | 0.617 |
| CUUUUAUGUGCCUUGAUAUAAAAG [hsa-mir-3910-2] | -0.644 | -0.682 | -0.297 | -0.556 | -0.124 |
| UGCUCUGAUGAAGACCCAUGUGGC [hsa-mir-621] | 0.589 | 1.51 | 0.285 | -0.162 | -0.6 |
| AGUCCGUGCAUCCGCCCUUCGAUGCUUGGGUU [hsa-mir-3182] | -0.278 | 0.421 | -0.389 | -0.405 | -1.11 |
| AGAAAGUGAAACACUAUUUUAGGUUUU [hsa-mir-4458] | -0.0974 | -0.248 | -0.00981 | 0.0524 | -0.486 |
